The values that follow come from doi:10.1101/2024.10.28.620641 (bioRxiv, 2024).

The series concerns the molecule itself. Nature of the series: cryo-EM structure.

B1: Caulobacter crescentus Tad pilus ATPase CpaF (enzyme, Caulobacter crescentus NA1000, UniProt Q9L714 1-501, looked up)
chain: MFGKRDSSASGDPKAPPPAPAGGATIATRPQRVEPVAAPEPKAPAPKVSGPAPKPTVGLEQLRAAQGQPQTANIVREQSDYYHATKTTIFNALLNTIDLSQLAQLDLKQAGEEIRDIVAELVAIKNVSMSVAEQEHLVQDIINDVLGYGPLEPLLARDDIADIMVNGAHRVFIEVGGKVQLTNVRFRDNLQLMNICQRIVSQVGRRVDESSPICDARLPDGSRVNVIAPPLALDGPTLTIRKFKKDKLTMKNLVEFASISPEGARVLGVIGACRCNLVISGGTGSGKTTLLNTMTAFIDPTERVVTCEDAAELQLQQPHVVRLETRPPNLEGSGAVTMRDLVKNCLRMRPERIIVGEVRGPEAFDLLQAMNTGHDGSMGTLHANSPREAISRIESMITMGGYGLPSKTIKEMIVGSVDVIIQAARLRDGSRRITHITEVVGLEGDVIVTQDLFVYEITGEDEHGKVVGKHRSTGIARPRFWDRARYYGLERELAEALDAAE
With B1, the “stoichiometry N” value stood at 6.

A word on the stoichiometry N: it is a count of units in the complex or per binding partner.
